According to article PMC11551737, “Structural and functional insights into the interaction between the bacteriophage T4 DNA processing proteins gp32 and Dda” (Nucleic Acids Research, 2024):

T1: bacteriophage T4 helicase Dda, wild type (bacteriophage T4) (UniProt P32270)
T1 sequence: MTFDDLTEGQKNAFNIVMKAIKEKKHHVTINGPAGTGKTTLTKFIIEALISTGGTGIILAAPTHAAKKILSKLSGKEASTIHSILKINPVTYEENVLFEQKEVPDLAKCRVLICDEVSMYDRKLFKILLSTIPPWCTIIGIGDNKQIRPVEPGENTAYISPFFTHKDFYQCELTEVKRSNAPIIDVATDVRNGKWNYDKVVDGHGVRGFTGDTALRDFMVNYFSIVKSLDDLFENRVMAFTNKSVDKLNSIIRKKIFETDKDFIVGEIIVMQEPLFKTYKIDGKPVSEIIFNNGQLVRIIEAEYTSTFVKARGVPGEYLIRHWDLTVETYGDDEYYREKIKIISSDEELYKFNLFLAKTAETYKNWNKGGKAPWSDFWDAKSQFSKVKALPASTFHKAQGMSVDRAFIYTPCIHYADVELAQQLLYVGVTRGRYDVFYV

T2: bacteriophage T4 helicase Dda, wild type (bacteriophage T4, UniProt P32270 1-439)
T2 chain: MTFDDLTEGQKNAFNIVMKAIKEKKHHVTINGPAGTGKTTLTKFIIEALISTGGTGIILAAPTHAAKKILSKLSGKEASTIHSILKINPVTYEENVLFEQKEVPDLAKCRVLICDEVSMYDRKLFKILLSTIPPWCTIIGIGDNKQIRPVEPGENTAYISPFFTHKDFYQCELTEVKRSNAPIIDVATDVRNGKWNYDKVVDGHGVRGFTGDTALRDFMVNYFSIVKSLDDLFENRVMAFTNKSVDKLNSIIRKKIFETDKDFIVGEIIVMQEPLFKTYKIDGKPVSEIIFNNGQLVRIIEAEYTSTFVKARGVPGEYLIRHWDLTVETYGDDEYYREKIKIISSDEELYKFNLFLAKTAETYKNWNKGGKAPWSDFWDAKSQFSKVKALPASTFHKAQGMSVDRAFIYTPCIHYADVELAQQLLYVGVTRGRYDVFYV

T3: bacteriophage T4 helicase Dda, wild type (bacteriophage T4, UniProt P32270 1-439)
T3 construct: Dda, SF1B helicase of bacteriophage T4, wild type; also called wild-type Dda
T3 sequence (looked up): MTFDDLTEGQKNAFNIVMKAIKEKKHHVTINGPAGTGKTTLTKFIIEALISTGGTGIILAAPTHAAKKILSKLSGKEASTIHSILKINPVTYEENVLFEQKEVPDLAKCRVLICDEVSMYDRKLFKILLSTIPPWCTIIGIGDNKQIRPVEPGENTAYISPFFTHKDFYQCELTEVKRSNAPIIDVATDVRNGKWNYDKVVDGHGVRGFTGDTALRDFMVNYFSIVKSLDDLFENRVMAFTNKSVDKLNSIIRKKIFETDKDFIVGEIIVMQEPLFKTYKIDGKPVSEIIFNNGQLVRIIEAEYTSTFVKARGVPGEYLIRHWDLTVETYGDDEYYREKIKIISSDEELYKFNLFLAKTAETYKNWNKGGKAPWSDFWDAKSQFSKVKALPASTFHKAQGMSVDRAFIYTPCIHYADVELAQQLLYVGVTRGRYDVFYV

T4: bacteriophage T4 helicase Dda, ATPase deficient mutant K38A (bacteriophage T4, UniProt P32270 1-439, K38A)
T4 construct: Dda, SF1B helicase of bacteriophage T4, active site point mutant K38A; called His-tagged in SPR analysis 1; theoretical mass printed as 52 046 Da; also called Dda-K38A; Dda–K38A
T4 sequence: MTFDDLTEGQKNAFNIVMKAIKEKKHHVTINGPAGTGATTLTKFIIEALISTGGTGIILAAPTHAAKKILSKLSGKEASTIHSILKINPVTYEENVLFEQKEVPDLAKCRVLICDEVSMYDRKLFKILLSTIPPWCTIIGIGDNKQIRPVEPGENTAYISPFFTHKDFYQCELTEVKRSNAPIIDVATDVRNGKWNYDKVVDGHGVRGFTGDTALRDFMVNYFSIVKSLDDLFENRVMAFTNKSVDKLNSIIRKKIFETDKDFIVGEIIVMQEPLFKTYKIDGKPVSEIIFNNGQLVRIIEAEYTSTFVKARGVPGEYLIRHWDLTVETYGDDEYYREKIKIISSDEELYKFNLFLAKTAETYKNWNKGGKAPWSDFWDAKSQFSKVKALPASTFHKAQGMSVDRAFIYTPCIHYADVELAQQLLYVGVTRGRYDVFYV


Legend:
[1] = target: T1, bacteriophage T4 helicase Dda, wild type (bacteriophage T4)
wild-type Dda = experiment: Dda-dependent DNA unwinding assay with gp32 variants (fluorescein-quenched replication fork substrate, no annealing trap); type: biochemical, bacteriophage T4; conditions: 375 nM gp32 variant, 25 nM wild-type Dda, 25 nM substrate, 2.5 mM ATP, triplicate experiments; for Rate constant of product formation (single exponential fit): 5 mM Mg(OAc)2, pH 7.5, room temperature, fluorescein fluorescence; for Amplitude of the product formation curve (fluorescence): higher amplitude = more effective prevention of reannealing
Procedure: A partial duplex substrate mimicking a replication fork was prepared by mixing equimolar concentrations of the following oligonucleotides: loading strand - […]/36-FAM/, displaced strand - […], and leading strand - […] in 10 mM HEPES/1 mM EDTA. The sample was heated to 95°C for 5 min, followed by slowly cooling to room temperature. All concentrations are final, after mixing. ATP (2.5 mM), Mg(OAc)2 (5 mM) and gp32 (375 nM) in assay buffer (25 mM HEPES, pH 7.5, 10 mM KOAc, 0.1 mM EDTA, 2 mM β-mercaptoethanol, 1 mg/ml bovine serum albumin and 4 mM phosphoenol pyruvate) were mixed and added to wells in one row of a black 96-well plate. The reactions were initiated by adding 25 nM substrate, 25 nM wild-type Dda and 5 U/ml pyruvate kinase/lactate dehydrogenase in assay buffer with a multichannel pipette to the entire row simultaneously. Fluorescein fluorescence was measured 8 times per minute in a VICTOR Nivo Multimode Plate Reader (Perkin Elmer) at room temperature with excitation through a 480/30 nm bandpass filter and emission measured after a 530/30 nm bandpass filter.

[2] = target: T2, bacteriophage T4 helicase Dda, wild type; experiment: SPR; wild-type Dda bound to dT20
[3] = target: T3, bacteriophage T4 helicase Dda, wild type; experiment: SPR; SPR analysis 2: Biacore T200, 25°C; wild-type Dda/dT20 immobilised on an NTA chip as in SPR analysis 1; peptides injected, 2-fold dilution series, 100 μM to 0.78 μM; steady-state analysis; conditions: both partners purified
[4] = target: T4, bacteriophage T4 helicase Dda, ATPase …; experiment: SPR; SPR analysis 1: Biacore 3000, 25°C; His-tagged Dda-K38A/dT20 immobilised on an NTA chip by capture-coupling (~5800 RU); peptides injected, 4-fold dilution series, maximum 100 μM; 20 mM Tris-acetate pH 8.0, 150 mM NaCl, 10 mM magnesium acetate, 3 mM potassium glutamate, 1 mM TCEP, 0.05% Tween20, 10% glycerol; steady-state fit, 1:1 model; conditions: both partners purified

| Molecule | amplitude of the product formation curve (fluorescein fluorescence) in the Dda-dependent DNA unwinding assay without annealing trap; 375 nM gp32, 25 nM wild-type Dda, 25 nM substrate [1] | Rate constant of product formation (single exponential fit) (wild-type Dda) | Amplitude of the product formation curve (fluorescence) (wild-type Dda) | also measured |
| --- | --- | --- | --- | --- |
| gp32-A (1–254), gp32 that lacks the C-terminal region (domain or fragment) MFKRKSTAELAAQMAKLNGNKGFSSEDKGEWKLKLDNAGNGQAVIRFLPSKNDEQAPFAILVNHGFKKNGKWYIETCSSTHGDYDSCPVCQYISKNDLYNTDNKEYSLVKRKTSYWANILVVKDPAAPENEGKVFKYRFGKKIWDKINAMIAVDVEMGETPVDVTCPWEGANFVLKVKQVSGFSNYDESKFLNQSAIPNIDDESFQKELFEQMVDLSEMTSKDKFKSFEELNTKFGQVMGTAVMGGAAATAAKK | 86000 |  |  |  |
| gp32-A: gp32 lacking the C-terminal region (residues 1–254) (protein, left off: 6xHis, N-terminal, state not stated) MFKRKSTAELAAQMAKLNGNKGFSSEDKGEWKLKLDNAGNGQAVIRFLPSKNDEQAPFAILVNHGFKKNGKWYIETCSSTHGDYDSCPVCQYISKNDLYNTDNKEYSLVKRKTSYWANILVVKDPAAPENEGKVFKYRFGKKIWDKINAMIAVDVEMGETPVDVTCPWEGANFVLKVKQVSGFSNYDESKFLNQSAIPNIDDESFQKELFEQMVDLSEMTSKDKFKSFEELNTKFGQVMGTAVMGGAAATAAKK |  | 0.021 s⁻¹ | 86 000 |  |
| NTKTEDDFMSSSSGSSSSADDTDLDDLLNDL [gp32 C-terminal peptide 271–301] |  |  |  | Kd [2]: 178 µM |
| AATAAKKADKVADDLDAFNVDDF (also called gp32 C-terminal peptide; source: synthetic peptide) [gp32 C-terminus peptide encompassing residues 248–270] |  |  |  | binding result [3]: binds |
| AATAAKKEDKVADDADAFNVDDF (peptide, UniProt P03695 248-270, looked up, probably a synthetic peptide like those of SPR analysis 1; also called mutant peptide A255E/L262A) [A255E/L262A mutant of gp32 peptide 248–270] |  |  |  | Kd [2]: 504 µM; fold less binding than the wild-type peptide 248–270 [3]: ~10 fold |
| AATAAKKADKEADDLDAANVDDF (peptide, UniProt P03695 248-270, looked up, probably a synthetic peptide like those of SPR analysis 1; also called mutant peptide V258E/F265A) [V258E/F265A mutant of gp32 peptide 248–270] |  |  |  | Kd [2]: 492 µM; fold less binding than the wild-type peptide 248–270 [3]: ~10 fold |
| full-length gp32 variant A255E/L262A (natural protein) MFKRKSTAELAAQMAKLNGNKGFSSEDKGEWKLKLDNAGNGQAVIRFLPSKNDEQAPFAILVNHGFKKNGKWYIETCSSTHGDYDSCPVCQYISKNDLYNTDNKEYSLVKRKTSYWANILVVKDPAAPENEGKVFKYRFGKKIWDKINAMIAVDVEMGETPVDVTCPWEGANFVLKVKQVSGFSNYDESKFLNQSAIPNIDDESFQKELFEQMVDLSEMTSKDKFKSFEELNTKFGQVMGTAVMGGAAATAAKKEDKVADDADAFNVDDFNTKTEDDFMSSSSGSSSSADDTDLDDLLNDL | 130000 |  |  |  |
| gp32 V258E/F265A: full-length gp32 variant V258E/F265A designed to reduce gp32–Dda interactions (protein, left off: 6xHis, N-terminal, state not stated) MFKRKSTAELAAQMAKLNGNKGFSSEDKGEWKLKLDNAGNGQAVIRFLPSKNDEQAPFAILVNHGFKKNGKWYIETCSSTHGDYDSCPVCQYISKNDLYNTDNKEYSLVKRKTSYWANILVVKDPAAPENEGKVFKYRFGKKIWDKINAMIAVDVEMGETPVDVTCPWEGANFVLKVKQVSGFSNYDESKFLNQSAIPNIDDESFQKELFEQMVDLSEMTSKDKFKSFEELNTKFGQVMGTAVMGGAAATAAKKADKEADDLDAANVDDFNTKTEDDFMSSSSGSSSSADDTDLDDLLNDL |  | 0.026 s⁻¹ | 87 000 |  |
| full-length gp32 variant V258E/F265A (natural protein) MFKRKSTAELAAQMAKLNGNKGFSSEDKGEWKLKLDNAGNGQAVIRFLPSKNDEQAPFAILVNHGFKKNGKWYIETCSSTHGDYDSCPVCQYISKNDLYNTDNKEYSLVKRKTSYWANILVVKDPAAPENEGKVFKYRFGKKIWDKINAMIAVDVEMGETPVDVTCPWEGANFVLKVKQVSGFSNYDESKFLNQSAIPNIDDESFQKELFEQMVDLSEMTSKDKFKSFEELNTKFGQVMGTAVMGGAAATAAKKADKEADDLDAANVDDFNTKTEDDFMSSSSGSSSSADDTDLDDLLNDL | 87000 |  |  |  |
| gp32 A255E/L262A: full-length gp32 variant A255E/L262A designed to reduce gp32–Dda interactions (protein, left off: 6xHis, N-terminal, state not stated) MFKRKSTAELAAQMAKLNGNKGFSSEDKGEWKLKLDNAGNGQAVIRFLPSKNDEQAPFAILVNHGFKKNGKWYIETCSSTHGDYDSCPVCQYISKNDLYNTDNKEYSLVKRKTSYWANILVVKDPAAPENEGKVFKYRFGKKIWDKINAMIAVDVEMGETPVDVTCPWEGANFVLKVKQVSGFSNYDESKFLNQSAIPNIDDESFQKELFEQMVDLSEMTSKDKFKSFEELNTKFGQVMGTAVMGGAAATAAKKEDKVADDADAFNVDDFNTKTEDDFMSSSSGSSSSADDTDLDDLLNDL |  | 0.023 s⁻¹ | 130 000 |  |
| AATAAKKADKVADDLDAFNVDDFNTKTEDDFMS (peptide, UniProt P03695 248-280, looked up, source: synthetic peptide) [gp32 C-terminal peptide 248–280] |  |  |  | binding result [4]: binds |
| gp32-B (21–301), gp32 that lacks the N-terminal region (domain or fragment) KGFSSEDKGEWKLKLDNAGNGQAVIRFLPSKNDEQAPFAILVNHGFKKNGKWYIETCSSTHGDYDSCPVCQYISKNDLYNTDNKEYSLVKRKTSYWANILVVKDPAAPENEGKVFKYRFGKKIWDKINAMIAVDVEMGETPVDVTCPWEGANFVLKVKQVSGFSNYDESKFLNQSAIPNIDDESFQKELFEQMVDLSEMTSKDKFKSFEELNTKFGQVMGTAVMGGAAATAAKKADKVADDLDAFNVDDFNTKTEDDFMSSSSGSSSSADDTDLDDLLNDL | 200000 |  |  |  |
| gp32-B: gp32 lacking the N-terminal region (residues 21–301) (protein, left off: 6xHis, N-terminal, state not stated) KGFSSEDKGEWKLKLDNAGNGQAVIRFLPSKNDEQAPFAILVNHGFKKNGKWYIETCSSTHGDYDSCPVCQYISKNDLYNTDNKEYSLVKRKTSYWANILVVKDPAAPENEGKVFKYRFGKKIWDKINAMIAVDVEMGETPVDVTCPWEGANFVLKVKQVSGFSNYDESKFLNQSAIPNIDDESFQKELFEQMVDLSEMTSKDKFKSFEELNTKFGQVMGTAVMGGAAATAAKKADKVADDLDAFNVDDFNTKTEDDFMSSSSGSSSSADDTDLDDLLNDL |  | 0.013 s⁻¹ | 200 000 |  |
